Substitutions are numbered along the chain they refer to.
B1: 601-86 (antibody, V domains shown)
VH: QVTLKESGPTLLKPTQTLTLTCTFSGFSLSTRGVGVGWIRQPPGQALEWLTLIYWDDDKRYSPSLKSRLTITKDTSKNQVVLTMTNMESVDTATYYCAQQTMTGAFDIWGQGTTVTVSS
VL: DIQMTQSPSSVSASVGDRVTITCRASQGISTLLAWYQQKPGKAPKLLISSASSLQSGVPARFSGSGSGTDFTLTISSLQPEDFATYYCQQSYRAPTFGQGTKVEIK
modifications: Zenon Alexa Fluor 647 label, bound non-covalently to the Fc, is not carried in the letters
notes: the phage clone of the same number is m27; also called Antibody 601-86; copies: 2 + 2
B2: 601-137 (antibody, V domains shown)
VH: QVQLQQSGAEVKKPGASVKVSCKASGYTFSRYYIHWVRQAPGQGLEWMGIINTDGGTTTYAQKFQGRLTMTRDTSTSTVYMELSSLRSDDTAVYYCARDYGTIDARRFDYWGQGTLVTVSS
VL: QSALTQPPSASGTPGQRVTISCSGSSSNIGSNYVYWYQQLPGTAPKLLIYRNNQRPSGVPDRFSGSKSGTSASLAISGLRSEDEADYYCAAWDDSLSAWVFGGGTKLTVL
modifications: Non-covalent Zenon Alexa Fluor 647 label in the assay, not part of the letters
notes: the phage clone of the same number is m26; also called Antibody 601-137; copies: 2 + 2
B3: 601-51 (antibody, V domains shown)
VH: not shown
VL: QSALTQPASVSGSPGQSITISCTGTSSDFGDYDYVSWYQQHPGKAPKLMIYDVSDRPSGVSNRFSGSKSGNTASLTISGLQAEDEADYFCSSFTTSSTLVFGGGTKLTVL
modifications: Zenon Alexa Fluor 647 label, bound non-covalently to the Fc, is not carried in the letters
notes: the phage clone of the same number is m19; also called Antibody 601-51; copies: 2 + 2
B4: 601-56 (antibody, V domains shown)
VH: QLQLQESGPGLVKPSETLSLTCTVSGGSISSSSYYWGWIRQPPGKGLEWIGSIYYSGSTYYNPSLKSRVTISVDTSKNQFSLKLGSVTAADTAVYYCARHDGTDAFDIWGQGTTVTVSS
VL: B3 VL with A3V, F93L
modifications: Zenon Alexa Fluor 647 label, bound non-covalently to the Fc, is not carried in the letters
notes: the phage clone of the same number is m28; also called Antibody 601-56; copies: 2 + 2
B5: 601-69 (antibody, V domains shown)
VH: QVQLVQSGAEVKKPGESLKISCKGSGYSFTSYWIGWVRQMPGKGLEWMGIIYPGDSDTRYSPSFQGQVTISADKSISTAYLQWSSLKASDTAMYYCARLSSSSYDAFDIWGQGTMVTVSS
VL: QSALTQPASVSGSPGQSITISCTGTSSDVGGYNYVSWYQQHPGKAPKLMIYDVSNRPSGVSNRFSGSKSGNTASLTISGLQAEDEADYYCSSYTSSSIPWVFGGGTKLTVL
modifications: Zenon Alexa Fluor 647 label, bound non-covalently to the Fc, is not carried in the letters
notes: the phage clone of the same number is m50; also called Antibody 601-69; copies: 2 + 2
B6: 601-43 (antibody, V domains shown)
VH: QVQLQQSGAEVKKPGASVRVSCKASGYSFGNNGITWVRQAPGQGLEWMGWISTYNGNTNYAQKLQGRVTMTTDTSTSTAYMELRSLRSDDTAVYYCARDYYSDSSGYWDDAFDIWGQGTTVTVSS
VL: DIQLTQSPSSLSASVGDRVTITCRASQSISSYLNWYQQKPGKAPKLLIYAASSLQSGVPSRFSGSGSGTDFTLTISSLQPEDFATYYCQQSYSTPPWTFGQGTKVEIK
modifications: Zenon Alexa Fluor 647 label, bound non-covalently to the Fc, is not carried in the letters
notes: the phage clone of the same number is m16; also called Antibody 601-43; copies: 2 + 2
B7: 601-1 (antibody, V domains shown)
VH: EVQLVESGGGLVKPGGSLRLSCAASGFTFSDYYMSWIRQAPGKGLEWVSYISDSTNTIYYADSVKGRFTVSRDNPKNSLYLQMISLRAEDTAVYYCARAVGAGEGFDHWGQGTLVTVSS
VL: not shown
modifications: Zenon Alexa Fluor 647 label, bound non-covalently to the Fc, is not carried in the letters
notes: the phage clone of the same number is m13; also called Antibody 601-1; copies: 2 + 2

molecular target: T1, human ROR1 on the cell surface (human, UniProt Q01973 30-937); assay: flow cytometry, Zenon Alexa Fluor 647-labelled antibody on CD5+ CD19+ CLL cells of patient 13, MFI of the isotype control at the same concentration subtracted
T1 construct: Endogenous ROR1 of MDA-MB-231, A549, H1299, Jeko-1, primary CLL cells; also called cell surface ROR1; ROR1 positive cells
T1 sequence (Q01973 30-937 limits assumed): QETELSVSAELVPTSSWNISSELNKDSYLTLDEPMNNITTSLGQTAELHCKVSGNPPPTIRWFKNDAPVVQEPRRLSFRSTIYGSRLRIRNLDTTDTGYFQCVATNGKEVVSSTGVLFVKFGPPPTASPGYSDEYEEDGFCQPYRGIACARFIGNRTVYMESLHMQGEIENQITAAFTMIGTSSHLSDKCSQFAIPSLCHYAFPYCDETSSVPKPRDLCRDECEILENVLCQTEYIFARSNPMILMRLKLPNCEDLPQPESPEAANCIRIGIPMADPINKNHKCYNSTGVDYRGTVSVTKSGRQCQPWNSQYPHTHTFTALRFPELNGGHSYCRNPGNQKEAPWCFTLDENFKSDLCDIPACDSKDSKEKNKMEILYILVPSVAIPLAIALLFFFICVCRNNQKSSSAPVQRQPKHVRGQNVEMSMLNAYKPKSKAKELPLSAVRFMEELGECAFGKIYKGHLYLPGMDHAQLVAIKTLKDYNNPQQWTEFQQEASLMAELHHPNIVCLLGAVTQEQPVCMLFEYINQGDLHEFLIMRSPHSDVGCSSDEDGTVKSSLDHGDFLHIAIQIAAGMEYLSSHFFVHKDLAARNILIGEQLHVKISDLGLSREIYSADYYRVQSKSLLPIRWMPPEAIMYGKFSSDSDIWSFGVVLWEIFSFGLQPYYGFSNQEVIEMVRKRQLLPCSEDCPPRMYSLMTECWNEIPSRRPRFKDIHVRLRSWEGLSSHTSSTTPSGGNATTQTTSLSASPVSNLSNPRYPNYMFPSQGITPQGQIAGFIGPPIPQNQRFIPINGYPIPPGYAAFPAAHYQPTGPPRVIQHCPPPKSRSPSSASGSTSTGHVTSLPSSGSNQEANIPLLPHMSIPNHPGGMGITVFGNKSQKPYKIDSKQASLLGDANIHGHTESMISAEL
Procedure: Anti-ROR1 and control IgG1 antibodies were labeled using a Zenon® Alexa Fluor® 647 human IgG labeling kit (Life Technologies) according to the manufacturer's directions. Frozen peripheral blood mononuclear cells (PBMC) from CLL patients (AllCells LLC) were thawed and washed in FACS buffer (PBS, 2% heat inactivated FBS, 0.1% NaN3). CLL cells were counted and resuspended at 4×10E6 cell/mL in FACS buffer. 2×10E5 cells per test were then incubated in […] FACS buffer with phycoerythrin (PE)-labeled anti-CD5, […] isothiocyanate (FITC)-labeled anti-CD19 (BD Biosciences) and Zenon® Alexa Fluor® 647-labelled anti-ROR1 or control human IgG1 ET901 (Eureka Therapeutics) for 30 minutes on ice. Following incubation, the cells were washed twice in FACS buffer and fixed in 2% paraformaldehyde in PBS (final concentration). Cells were run on a BD LSRII flow cytometer (BD Biosciences) and analyzed using FlowJo software (Treestar).
CLL cells identified as CD5 and CD19 double positive were assessed for anti-ROR1 or control Ig staining.

Binder | binding result
B1 | binds
B2 | binds
B3 | binds
B4 | binds
B5 | binds
B6 | binds
B7 | binds
